For the series the following is noted: Streptomyces sp. EC3, Thermal, DSC, reversible: yes.
The mark [1] stands for this setting: pH 7.5, Sodium phosphate 60 mM, transition: 3.
[2] abbreviates: pH 8.9, glycine-NaOH 60 mM, transition: 4.

Values joined by “and” are separate entries in the source; they are usually repeats but may differ in a detail not shown here. Identical values can stand only once.

Endo-1,4-beta-xylanase wild type, Q56013, sequence (Q56013 entry or part of it): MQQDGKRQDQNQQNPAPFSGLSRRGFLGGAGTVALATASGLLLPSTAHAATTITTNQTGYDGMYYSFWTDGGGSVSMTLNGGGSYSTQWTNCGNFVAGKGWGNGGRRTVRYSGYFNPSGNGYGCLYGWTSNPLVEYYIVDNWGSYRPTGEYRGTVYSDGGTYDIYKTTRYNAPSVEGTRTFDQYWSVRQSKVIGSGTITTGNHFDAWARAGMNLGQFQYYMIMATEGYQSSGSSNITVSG

In general, Tm refers to the temperature at which the thermal transition is half complete. “Endo-1,4-beta-xylanase wild type, Q56013”: the “unfolding enthalpy (calorimetric)” value was 66 kcal/mol and 84 kcal/mol and 108 kcal/mol (pH 3.6, Sodium phosphate 60 mM, transition: 4); 57 kcal/mol and 100 kcal/mol (pH 4.1, Sodium phosphate 60 mM, transition: 3); 100 kcal/mol and 150 kcal/mol and 223 kcal/mol (pH 6.3, Sodium phosphate 60 mM, transition: 4); 99 kcal/mol and 200 kcal/mol under setting [1]; 93 kcal/mol and 137 kcal/mol and 187 kcal/mol (pH 7.5, Sodium phosphate 60 mM, transition: 4); 72 kcal/mol and 136 kcal/mol (pH 8.9, glycine-NaOH 60 mM, transition: 3). Moreover, under setting [2], the “unfolding enthalpy (calorimetric)” value was 118 kcal/mol and 157 kcal/mol. The Tm runs as follows: under setting [1], 60.5 °C and 64 °C; under setting [2], 51.5 °C and 54.6 °C.

Source of the values: FireProtDB (doi:10.1021/bi00250a032).
